* marks the point of attachment. Stearoyl = CCCCCCCCCCCCCCCCCC(=O)*
Experiment: CD spectra under different pH conditions with predicted secondary structure
Type: physicochemical
Conditions: peptide concentration 20 μM, PBS (−), pH 7.4, 6.5, 6.0, 5.5
Description: The peptide obtained in Production Example 1 alone and liposome 1 obtained as in Example 1 (each having a peptide concentration of 20 μM) were suspended in PBS (−) having different pH, and CD (circular dichroism) spectra were recorded on a J-720WI spectropolarimeter (produced by JASCO Corporation). Then, analysis software (see JWSSE-480; Molecular Membrane Biology, July, August 2007; 24 (4): 282-293) was used to predict the composition of the secondary structure in the spectra.
In FIG. 9 below, the “α-helix” represents an a helix structure; the “coil” represents a random coil structure (not forming a clear secondary structure); and “turn” represents a bending structure.

In the case of “C17H35—C(O)-GGGGHGAHEHAGHEHAAGEHHAHE-NH2 (Stearoyl-GGGGHGAHEHAGHEHAAGEHHAHE-NH2; SMILES CCCCCCCCCCCCCCCCCC(=O)NCC(=O)NCC(=O)NCC(=O)NCC(=O)N[C@@H](Cc1c[nH]cn1)C(=O)NCC(=O)N[C@@H](C)C(=O)N[C@@H](Cc1c[nH]cn1)C(=O)N[C@@H](CCC(=O)O)C(=O)N[C@@H](Cc1c[nH]cn1)C(=O)N[C@@H](C)C(=O)NCC(=O)N[C@@H](Cc1c[nH]cn1)C(=O)N[C@@H](CCC(=O)O)C(=O)N[C@@H](Cc1c[nH]cn1)C(=O)N[C@@H](C)C(=O)N[C@@H](C)C(=O)NCC(=O)N[C@@H](CCC(=O)O)C(=O)N[C@@H](Cc1c[nH]cn1)C(=O)N[C@@H](Cc1c[nH]cn1)C(=O)N[C@@H](C)C(=O)N[C@@H](Cc1c[nH]cn1)C(=O)N[C@@H](CCC(=O)O)C(N)=O) [Compound 1]”, the “structural change with pH (CD spectrum)” value was “a structural change does not occur unless the pH is lowered to 6.0”.

Source: patent US9186389B2, “Nanoparticles containing pH-responsive peptide” (Taiho Pharmaceutical Co., Ltd., priority 2011, dated 2015)
